US12104181B2, “Compositions and methods for treating viral infections targeting TRIM7” (THE BOARD OF REGENTS OF THE UNIVERSITY OF TEXAS SYSTEM, priority 2021, dated 2024)
Where “and” joins values, the source holds several entries; their conditions need not be identical. Identical values can stand only once.

B1: RNF135: human RING type E3 ligase expressed from lentiviral vector (protein, UniProt Q8IUD6 1-432, looked up)
E3 ubiquitin-protein ligase …: MAGLGLGSAVPVWLAEDDLGCIICQGLLDWPATLPCGHSFCRHCLEALWGARDARRWACPTCRQGAAQQPHLRKNTLLQDLADKYRRAAREIQAGSDPAHCPCPGSSSLSSAAARPRRRPELQRVAVEKSITEVAQELTELVEHLVDIVRSLQNQRPLSESGPDNELSILGKAFSSGVDLSMASPKLVTSDTAAGKIRDILHDLEEIQEKLQESVTWKEAPEAQMQGELLEAPSSSSCPLPDQSHPALRRASRFAQWAIHPTFNLKSLSCSLEVSKDSRTVTVSHRPQPYRWSCERFSTSQVLCSQALSSGKHYWEVDTRNCSHWAVGVASWEMSRDQVLGRTMDSCCVEWKGTSQLSAWHMVKETVLGSDRPGVVGIWLNLEEGKLAFYSVDNQEKLLYECTISASSPLYPAFWLYGLHPGNYLIIKQVKV
modifications: lentiviral expression
notes: human RING type E3 ligase expressed from lentiviral vector
B2: RFFL: human RING type E3 ligase expressed from lentiviral vector (protein, UniProt Q8WZ73 1-363, looked up)
E3 ubiquitin-protein ligase …: MWATCCNWFCLDGQPEEVPPPQGARMQAYSNPGYSSFPSPTGLEPSCKSCGAHFANTARKQTCLDCKKNFCMTCSSQVGNGPRLCLLCQRFRATAFQREELMKMKVKDLRDYLSLHDISTEMCREKEELVLLVLGQQPVISQEDRTRASTLSPDFPEQQAFLTQPHSSMVPPTSPNLPSSSAQATSVPPAQVQENQQANGHVSQDQEEPVYLESVARVPAEDETQSIDSEDSFVPGRRASLSDLTDLEDIEGLTVRQLKEILARNFVNYKGCCEKWELMERVTRLYKDQKGLQHLVSGAEDQNGGAVPSGLEENLCKICMDSPIDCVLLECGHMVTCTKCGKRMNECPICRQYVIRAVHVFRS
B3: RNF145: human RING type E3 ligase expressed from lentiviral vector (protein, UniProt Q96MT1 1-663, looked up)
RING finger protein 145: MAAKEKLEAVLNVALRVPSIMLLDVLYRWDVSSFFQQIQRSSLSNNPLFQYKYLALNMHYVGYILSVVLLTLPRQHLVQLYLYFLTALLLYAGHQISRDYVRSELEFAYEGPMYLEPLSMNRFTTALIGQLVVCTLCSCVMKTKQIWLFSAHMLPLLARLCLVPLETIVIINKFAMIFTGLEVLYFLGSNLLVPYNLAKSAYRELVQVVEVYGLLALGMSLWNQLVVPVLFMVFWLVLFALQIYSYFSTRDQPASRERLLFLFLTSIAECCSTPYSLLGLVFTVSFVALGVLTLCKFYLQGYRAFMNDPAMNRGMTEGVTLLILAVQTGLIELQVVHRAFLLSIILFIVVASILQSMLEIADPIVLALGASRDKSLWKHFRAVSLCLFLLVFPAYMAYMICQFFHMDFWLLIIISSSILTSLQVLGTLFIYVLFMVEEFRKEPVENMDDVIYYVNGTYRLLEFLVALCVVAYGVSETIFGEWTVMGSMIIFIHSYYNVWLRAQLGWKSFLLRRDAVNKIKSLPIATKEQLEKHNDICAICYQDMKSAVITPCSHFFHAGCLKKWLYVQETCPLCHCHLKNSSQLPGLGTEPVLQPHAGAEQNVMFQEGTEPPGQEHTPGTRIQEGSRDNNEYIARRPDNQEGAFDPKEYPHSAKDEAHPVESA
B4: RNF13: human RING type E3 ligase expressed from lentiviral vector (protein, UniProt O43567 35-381, looked up)
E3 ubiquitin-protein ligase …: DILAYNFENASQTFDDLPARFGYRLPAEGLKGFLINSKPENACEPIVPPPVKDNSSGTFIVLIRRLDCNFDIKVLNAQRAGYKAAIVHNVDSDDLISMGSNDIEVLKKIDIPSVFIGESSANSLKDEFTYEKGGHLILVPEFSLPLEYYLIPFLIIVGICLILIVIFMITKFVQDRHRARRNRLRKDQLKKLPVHKFKKGDEYDVCAICLDEYEDGDKLRILPCSHAYHCKCVDPWLTKTKKTCPVCKQKVVPSQGDSDSDTDSSQEENEVTEHTPLLRPLASVSAQSFGALSESRSHQNMTESSDYEEDDNEDTDSSDAENEINEHDVVVQLQPNGERDYNIANTV
B5: RFPL3: human RING type E3 ligase expressed from lentiviral vector (protein, UniProt O75679 1-317, looked up)
Ret finger protein-like 3: MKRLSLVTTNRLSPQGNFLPLCTFPLAVDMAALFQEASSCPVCSDYLEKPMSLECGCTVCLKCINSLQKEPHGEDLLCCCCSMVSQRNKIRPNRQLERLVSHIKELEPKLKKILQMNPRMRKFQVDMTLDADTANNFLLISDDLRSVRSGLITQNRQDLAERFDVSVCILGSPRFTCGRHYWEVDVGTSTEWDLGVCRESVHCKGKIQLTTELGFWTVSLRDGSRLSASTVPLTFLLVDRKLQRVGIFLDMGMQNVSFFDAESGSHVYTFRSVSAEEPLRPFLAPSIPPNGDQGVLSICPLMNSGTTDAPVRPGEAK
modifications: lentiviral expression
notes: as for B1
B6: RCHY1: human RING type E3 ligase expressed from lentiviral vector; listed twice (protein, UniProt Q96PM5 1-261, looked up)
RING finger and CHY zinc …: MAATAREDGASGQERGQRGCEHYDRGCLLKAPCCDKLYTCRLCHDNNEDHQLDRFKVKEVQCINCEKIQHAQQTCEECSTLFGEYYCDICHLFDKDKKQYHCENCGICRIGPKEDFFHCLKCNLCLAMNLQGRHKCIENVSRQNCPICLEDIHTSRVVAHVLPCGHLLHRTCYEEMLKEGYRCPLCMHSALDMTRYWRQLDDEVAQTPMPSEYQNMTVDILCNDCNGRSTVQFHILGMKCKICESYNTAQAGGRRISLDQQ
B7: RSPRY1: human RING type E3 ligase expressed from lentiviral vector (protein, UniProt Q96DX4 17-576, looked up)
RING finger and SPRY …: QGLLLTLEEHIAHFLGTGGAATTMGNSCICRDDSGTDDSVDTQQQQAENSAVPTADTRSQPRDPVRPPRRGRGPHEPRRKKQNVDGLVLDTLAVIRTLVDNDQEPPYSMITLHEMAETDEGWLDVVQSLIRVIPLEDPLGPAVITLLLDECPLPTKDALQKLTEILNLNGEVACQDSSHPAKHRNTSAVLGCLAEKLAGPASIGLLSPGILEYLLQCLKLQSHPTVMLFALIALEKFAQTSENKLTISESSISDRLVTLESWANDPDYLKRQVGFCAQWSLDNLFLKEGRQLTYEKVNLSSIRAMLNSNDVSEYLKISPHGLEARCDASSFESVRCTFCVDAGVWYYEVTVVTSGVMQIGWATRDSKFLNHEGYGIGDDEYSCAYDGCRQLIWYNARSKPHIHPCWKEGDTVGFLLDLNEKQMIFFLNGNQLPPEKQVFSSTVSGFFAAASFMSYQQCEFNFGAKPFKYPPSMKFSTFNDYAFLTAEEKIILPRHRRLALLKQVSIRENCCSLCCDEVADTQLKPCGHSDLCMDCALQLETCPLCRKEIVSRIRQISHIS
B8: MARCH3: human RING type E3 ligase expressed from lentiviral vector (protein, UniProt Q86UD3 1-253, looked up)
E3 ubiquitin-protein ligase …: MTTSRCSHLPEVLPDCTSSAAPVVKTVEDCGSLVNGQPQYVMQVSAKDGQLLSTVVRTLATQSPFNDRPMCRICHEGSSQEDLLSPCECTGTLGTIHRSCLEHWLSSSNTSYCELCHFRFAVERKPRPLVEWLRNPGPQHEKRTLFGDMVCFLFITPLATISGWLCLRGAVDHLHFSSRLEAVGLIALTVALFTIYLFWTLVSFRYHCRLYNEWRRTNQRVILLIPKSVNVPSNQPSLLGLHSVKRNSKETVV
modifications: lentiviral expression
notes: as for B1
B9: RNF112: human RING type E3 ligase expressed from lentiviral vector (protein, UniProt Q9ULX5 1-631, looked up)
RING finger protein 112: MPRPALSVTSFCHRLGKRERKQSFMGNSGNSWSHTPFPKLELGLGPQPMAPRELPTCSICLERLRDPISLDCGHDFCIRCFSTHRLPGCEPPCCPECRKICKQKRGLRSLGEKMKLLPQRPLPPALQETCPVRAEPLLLVRINASGGLILRMGAINRCLKHPLARDTPVCLLAVLGEQHSGKSFLLNHLLQGLPGLESGEGGRPRGGEASLQGCRWGANGLARGIWMWSHPFLLGKEGKKVAVFLVDTGDAMSPELSRETRIKLCALTTMLSSYQILSTSQELKDTDLDYLEMFVHVAEVMGKHYGMVPIQHLDLLVRDSSHPNKAGQGHVGNIFQRLSGRYPKVQELLQGKRARCCLLPAPGRRRMNQGHASPGDTDDDFRHLLGAYVSDVLSAAPQHAKSRCQGYWNEGRAVARGDRRLLTGQQLAQEIKNLSGWMGRTGPGFTSPDEMAAQLHDLRKVEAAKREFEEYVRQQDVATKRIFSALRVLPDTMRNLLSTQKDAILARHGVALLCKGRDQTLEALEAELQATAKAFMDSYTMRFCGHLAAVGGAVGAGLMGLAGGVVGAGMAAAALAAEAGMVAAGAAVGATGAAVVGGGVGAGLAATVGCMEKEEDERLLEGDREPLLQEE
modifications: lentiviral expression
notes: as for B1
B10: RNF103: human RING type E3 ligase expressed from lentiviral vector (protein, UniProt O00237 1-685, looked up)
E3 ubiquitin-protein ligase …: MWLKLFFLLLYFLVLFVLARFFEAIVWYETGIFATQLVDPVALSFKKLKTILECRGLGYSGLPEKKDVRELVEKSGDLMEGELYSALKEEEASESVSSTNFSGEMHFYELVEDTKDGIWLVQVIANDRSPLVGKIHWEKMVKKVSRFGIRTGTFNCSSDPRYCRRRGWVRSTLIMSVPQTSTSKGKVMLKEYSGRKIEVEHIFKWITAHAASRIKTIYNAEHLKEEWNKSDQYWLKIYLFANLDQPPAFFSALSIKFTGRVEFIFVNVENWDNKSYMTDIGIYNMPSYILRTPEGIYRYGNHTGEFISLQAMDSFLRSLQPEVNDLFVLSLVLVNLMAWMDLFITQGATIKRFVVLISTLGTYNSLLIISWLPVLGFLQLPYLDSFYEYSLKLLRYSNTTTLASWVRADWMFYSSHPALFLSTYLGHGLLIDYFEKKRRRNNNNDEVNANNLEWLSSLWDWYTSYLFHPIASFQNFPVESDWDEDPDLFLERLAFPDLWLHPLIPTDYIKNLPMWRFKCLGVQSEEEMSEGSQDTENDSESENTDTLSSEKEVFEDKQSVLHNSPGTASHCDAEACSCANKYCQTSPCERKGRSYGSYNTNEDMEPDWLTWPADMLHCTECVVCLENFENGCLLMGLPCGHVFHQNCIVMWLAGGRHCCPVCRWPSYKKKQPYAQHQPLSNDVPS
modifications: lentiviral expression
notes: as for B1

Tested on: coxsackievirus B3 (CVB3-GFP)
Assay type: cell-based
Conditions: HeLa cells, replicate R1; for Percent Infected R1: GFP-positive cells within RFP-positive gate

Row | Molecule | Percent Infected R1 | Z score R1
1 | B1 | 86.2% | −0.03
2 | B2 | 88.2% | −0.01
3 | B3 | 94.2% | 0.07
4 | B4 | 97.9% | 0.12
5 | B5 | 78.3% | −0.13
6 | B6 | 97.6% and 91.2% | 0.11 and 0.03
7 | B7 | 91.4% | 0.04
8 | B8 | 91.4% | 0.04
9 | B9 | 86.6% | −0.03
10 | B10 | 96.9% | 0.11
